Experimental data from PMC12803953, “The MO25 protein Pmo25 functions in contractile ring stability and Sid2 localization during cytokinesis” (iScience, 2025).

Columns and labels:
[1] = biological target: T1, MBP-Ync13-full length-6His (S. pombe, UniProt O13683 1-1237); experiment: pull-down; Kd by depletion of the supernatant: various concentrations of MBP-Ync13 proteins immobilised on amylose beads with a fixed low concentration of Pmo25-(19–329)-6His, 1 h at 4°C; supernatant on SDS-PAGE, Coomassie Blue; one site binding equation; conditions: both partners purified
T1 construct: cloned in pET21a-MBP between the MBP-TEV-GGSGGS fragment and the C-terminal 6xHis tag; A TEV site and a GGSGGS linker stand between MBP and Ync13; also called MBP-tagged full length Ync13; not shown: MBP, N-terminal, kept; His6, C-terminal, kept
T1 sequence (looked up): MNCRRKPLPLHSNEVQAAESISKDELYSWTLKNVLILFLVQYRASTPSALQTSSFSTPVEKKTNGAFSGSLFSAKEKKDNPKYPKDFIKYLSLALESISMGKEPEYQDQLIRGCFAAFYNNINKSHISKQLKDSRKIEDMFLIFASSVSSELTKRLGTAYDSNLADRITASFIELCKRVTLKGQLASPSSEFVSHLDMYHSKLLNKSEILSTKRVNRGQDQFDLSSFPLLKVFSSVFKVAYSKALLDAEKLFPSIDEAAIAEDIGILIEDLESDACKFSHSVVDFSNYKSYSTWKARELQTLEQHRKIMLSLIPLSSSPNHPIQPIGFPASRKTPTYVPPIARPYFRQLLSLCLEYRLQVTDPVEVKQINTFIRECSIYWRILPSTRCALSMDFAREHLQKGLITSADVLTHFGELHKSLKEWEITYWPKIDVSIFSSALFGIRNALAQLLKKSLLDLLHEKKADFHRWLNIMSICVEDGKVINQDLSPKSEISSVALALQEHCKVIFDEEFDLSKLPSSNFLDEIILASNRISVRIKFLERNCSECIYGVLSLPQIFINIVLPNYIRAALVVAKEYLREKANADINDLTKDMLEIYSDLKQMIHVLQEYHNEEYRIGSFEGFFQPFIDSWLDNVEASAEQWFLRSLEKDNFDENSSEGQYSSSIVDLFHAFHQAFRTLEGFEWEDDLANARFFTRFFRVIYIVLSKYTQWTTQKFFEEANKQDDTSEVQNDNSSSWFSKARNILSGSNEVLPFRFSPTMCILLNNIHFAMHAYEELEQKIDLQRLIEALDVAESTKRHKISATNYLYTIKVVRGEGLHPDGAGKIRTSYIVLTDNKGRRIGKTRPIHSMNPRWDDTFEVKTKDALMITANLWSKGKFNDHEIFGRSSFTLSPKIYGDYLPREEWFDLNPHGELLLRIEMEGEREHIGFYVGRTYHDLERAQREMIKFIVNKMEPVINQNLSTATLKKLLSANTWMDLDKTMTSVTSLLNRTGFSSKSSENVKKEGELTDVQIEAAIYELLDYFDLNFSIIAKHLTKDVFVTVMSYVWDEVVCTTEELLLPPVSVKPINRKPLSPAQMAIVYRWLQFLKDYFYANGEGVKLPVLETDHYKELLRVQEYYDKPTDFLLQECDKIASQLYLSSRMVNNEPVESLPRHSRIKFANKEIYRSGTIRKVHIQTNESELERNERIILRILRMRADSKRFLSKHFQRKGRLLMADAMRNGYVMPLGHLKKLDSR

[2] = biological target: T2, MBP-Ync13-(591–1130)-6His (S. pombe, UniProt O13683 591-1130); experiment: as above; conditions: both partners purified
T2 construct: The cloning of this fragment is not described; not shown: MBP, N-terminal, kept; His6, C-terminal, kept
T2 sequence (looked up): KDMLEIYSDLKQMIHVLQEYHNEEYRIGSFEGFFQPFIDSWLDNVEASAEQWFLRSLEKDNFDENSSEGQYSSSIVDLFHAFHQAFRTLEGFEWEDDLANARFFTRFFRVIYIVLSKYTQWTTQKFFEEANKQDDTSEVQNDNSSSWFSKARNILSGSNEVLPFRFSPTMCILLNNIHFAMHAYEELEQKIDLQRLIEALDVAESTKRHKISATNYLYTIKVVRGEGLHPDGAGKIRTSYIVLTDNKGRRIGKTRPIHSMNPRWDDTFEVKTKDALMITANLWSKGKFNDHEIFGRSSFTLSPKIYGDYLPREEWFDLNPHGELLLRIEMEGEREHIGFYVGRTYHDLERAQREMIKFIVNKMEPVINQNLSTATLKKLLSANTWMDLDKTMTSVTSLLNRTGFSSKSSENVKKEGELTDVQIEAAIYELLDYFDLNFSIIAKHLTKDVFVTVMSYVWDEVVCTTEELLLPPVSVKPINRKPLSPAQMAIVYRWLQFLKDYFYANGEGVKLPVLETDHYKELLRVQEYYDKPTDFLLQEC

Kd [1]: 490 nM | Kd [2]: 620 nM
B1: Pmo25-(19–329)-6His (domain or fragment, S. pombe, UniProt Q9P7Q8 19-329, looked up)
chain: LCDNLPKLEINNDKKKSFEEVSKCLQNLRVSLCGTAEVEPDADLVSDLSFQIYQSNLPFLLVRYLPKLEFESKKDTGLIFSALLRRHVASRYPTVDYMLAHPQIFPVLVSYYRYQEVAFTAGSILRECSRHEALNEVLLNSRDFWTFFSLIQASSFDMASDAFSTFKSILLNHKSQVAEFISYHFDEFFKQYTVLLKSENYVTKRQSLKLLGEILLNRANRSVMTRYISSAENLKLMMILLRDKSKNIQFEAFHVFKLFVANPEKSEEVIEILRRNKSKLISYLSAFHTDRKNDEQFNDERAFVIKQIERL
notes: in pET21a between the N-terminal T7 tag and the C-terminal 6xHis tag; not shown: His6, C-terminal, kept
